{
  "source": "patent US5084274A",
  "about": "“Inhibition of arterial thrombotic occlusion or thromboembolism” (Scripps Clinic and Research Foundation, priority 1987, dated 1992)",
  "key": {"[1]": {"test_system": "acute myocardial infarction / occluded coronary arteries", "conditions": "cited from earlier work"}, "[2]": {"test_system": "platelet deposition in the Dacron graft", "test": "Platelet deposition (thrombus formation) in Dacron graft, arterial thrombosis model, 111In-labeled platelets", "format": "in vivo, baboon", "conditions": "1 mg of t-PA (0.1 mg/kg/hour) infusion; previous studies, same model", "description": "Permanent arteriovenous shunts were prepared between the femoral artery and vein using 3 mm i.d. Silastic tubing Subsequent interposition of 5 cm long, 4 mm i.d. Dacron vascular grafts served as thrombogenic surface, inducing continuous platelet-fibrinthrombus formation until progressive occlusion of the graft at 70±20 min.\nAll baboons underwent at least one control experiment prior to APC administration. The APC was given by injecting one-fourth to one-third of the total PC dose as a bolus and the remaining three-fourths to two-thirds of the dose as continuous infusion for one hour. The interposition of the graft and bolus injection were made at time=0 and APC was administered at the proximal site of the Silastic shunt. The experiments were divided into three groups; the \"low dose\" APC group received 2.0-3.4 mg (total), the \"high dose\" APC group received 11 mg (total), and the combination group received 2.1 mg APC plus 1.3 mg t-PA (total).\nPlatelet Deposition in the Dacron Graft\nThe deposition of ^III In-labeled Platelets was detected by scintillation camera images of the graft. […] Inhibition of platelet deposition in treated animals was expressed as % of total number of platelets deposited in the control experiments at 30 and 60 minutes timepoints."}},
  "data": [
    {"molecule": "t-PA: t-PA from a melanoma cell line, provided by Dr. Desire Collen (Leuven, Belgium) (protein, UniProt P00750 36-562, looked up) Tissue-type plasminogen …: SYQVICRDEKTQMIYQQHQSWLRPVLRSNRVEYCWCNSGRAQCHSVPVKSCSEPRCFNGGTCQQALYFSDFVCQCPEGFAGKCCEIDTRATCYEDQGISYRGTWSTAESGAECTNWNSSALAQKPYSGRRPDAIRLGLGNHNYCRNPDRDSKPWCYVFKAGKYSSEFCSTPACSEGNSDCYFGNGSAYRGTHSLTESGASCLPWNSMILIGKVYTAQNPSAQALGLGKHNYCRNPDGDAKPWCHVLKNRRLTWEYCDVPSCSTCGLRQYSQPQFRIKGGLFADIASHPWQAAIFAKHRRSPGERFLCGGILISSCWILSAAHCFQERFPPHHLTVILGRTYRVVPGEEEQKFEVEKYIVHKEFDDDTYDNDIALLQLKSDSSRCAQESSVVRTVCLPPADLQLPDWTECELSGYGKHEALSPFYSERLKEAHVRLYPSSRCTSQHLLNRTVTDNMLCAGDTRSGGPQANLHDACQGDSGGPLVCLNDGRMTLVGIISWGLGCGQKDVPGVYTKVTNYLDWIRDNMRP", "values": [
      {"measurement": "Patients with reocclusion after discontinuing t-PA infusion", "setting": "[1]; after successful thrombolytic reperfusion, despite full-dose heparin therapy", "value": "between one-four and one-third of patients"},
      {"measurement": "Thrombolysis in acute myocardial infarction (in words)", "setting": "[1]; infusion into humans", "value": "effective thrombolysis"},
      {"measurement": "Antiplatelet effect (in words, FIG. 8)", "setting": "[2]", "value": "intermediate antiplatelet effect"}
    ]}
  ]
}
